For one experiment, the target named is T1, CDCP1 (UniProt Q9H5V8 30-836, limits assumed).
T1 construct: whole, on cells; Endogenous protein on HT-1376 cells; also called cell surface CDCP1
T1 sequence (looked up): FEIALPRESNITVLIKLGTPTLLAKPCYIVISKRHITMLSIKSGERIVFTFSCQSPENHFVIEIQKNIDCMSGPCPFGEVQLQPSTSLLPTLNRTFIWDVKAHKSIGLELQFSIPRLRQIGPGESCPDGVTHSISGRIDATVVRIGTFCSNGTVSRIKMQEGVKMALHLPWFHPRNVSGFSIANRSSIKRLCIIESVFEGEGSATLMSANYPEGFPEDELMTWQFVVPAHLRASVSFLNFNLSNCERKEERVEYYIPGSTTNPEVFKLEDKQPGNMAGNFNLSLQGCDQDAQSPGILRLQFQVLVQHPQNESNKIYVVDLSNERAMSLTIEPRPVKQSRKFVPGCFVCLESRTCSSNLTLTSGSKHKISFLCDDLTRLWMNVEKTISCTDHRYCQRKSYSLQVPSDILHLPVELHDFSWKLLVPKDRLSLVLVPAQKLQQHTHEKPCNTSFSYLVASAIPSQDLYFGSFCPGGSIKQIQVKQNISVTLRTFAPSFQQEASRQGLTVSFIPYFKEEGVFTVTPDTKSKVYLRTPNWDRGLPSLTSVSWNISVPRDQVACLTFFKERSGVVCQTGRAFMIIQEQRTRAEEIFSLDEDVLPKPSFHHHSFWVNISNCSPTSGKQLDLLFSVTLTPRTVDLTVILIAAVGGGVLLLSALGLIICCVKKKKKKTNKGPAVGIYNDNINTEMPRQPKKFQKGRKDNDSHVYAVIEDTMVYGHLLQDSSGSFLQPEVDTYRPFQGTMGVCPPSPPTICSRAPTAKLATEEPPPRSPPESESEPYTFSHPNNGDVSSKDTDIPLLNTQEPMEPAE
Briefly: statement in Example 2; no direct binding assay, only degradation on HT-1376 cells. The protocol:
(§1) After incubation at 37° C. for the designated time point, cells were washed with phosphate-buffered saline (PBS), lifted with versene, and harvested by centrifugation at 300×g for 5 min at 4° C. Samples were then tested by western blotting or flow cytometry to quantify protein levels.
(§2) Western blotting: Cell pellets were lysed with 1×RIPA buffer containing cOmplete mini protease inhibitor cocktail (Sigma-Aldrich) at 4° C. for 40 min. Lysates were centrifuged at 16,000×g for 10 min at 4° C. and protein concentrations were normalized using BCA assay (Pierce). 4×NuPAGE LDS sample buffer (Invitrogen) and 2-mercaptoethanol (BME) was added to the lysates and boiled for 10 min. Equal amounts of lysates were loaded onto a 4-12% Bis-Tris gel and ran at 200V for 37 min. The gel was incubated in 20% ethanol for 10 min and transferred onto a polyvinylidene difluoride (PVDF) membrane. The membrane was blocked in PBS with 0.1% Tween-20+5% bovine serum albumin (BSA) for 30 min at room temperature with gentle shaking. Membranes were incubated overnight with primary antibodies at respective dilutions at 4° C. with gentle shaking in PBS+0.2% Tween-20+5% BSA. […] Band intensities were quantified using Image Studio Software (LI-COR). […]

The target of a further experiment is T2, Nectin-4 (UniProt Q96NY8 32-510, limits assumed).
T2 construct: whole, on cells; Endogenous receptor on HT-1376 cells
T2 sequence (looked up): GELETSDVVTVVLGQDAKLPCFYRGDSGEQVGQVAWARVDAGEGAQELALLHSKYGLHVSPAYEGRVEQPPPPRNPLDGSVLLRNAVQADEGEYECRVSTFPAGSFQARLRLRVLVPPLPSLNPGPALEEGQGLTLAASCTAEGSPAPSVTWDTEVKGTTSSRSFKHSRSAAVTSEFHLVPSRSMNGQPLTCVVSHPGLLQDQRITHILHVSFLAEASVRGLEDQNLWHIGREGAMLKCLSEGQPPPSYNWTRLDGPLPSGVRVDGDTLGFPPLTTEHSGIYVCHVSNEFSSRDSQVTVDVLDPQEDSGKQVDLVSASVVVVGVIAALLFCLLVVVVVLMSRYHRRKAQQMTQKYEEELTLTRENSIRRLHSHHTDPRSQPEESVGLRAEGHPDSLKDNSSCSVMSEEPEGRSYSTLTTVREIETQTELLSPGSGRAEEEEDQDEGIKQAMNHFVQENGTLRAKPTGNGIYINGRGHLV
The description is as above. Here is the method:
as §1, §2

B1: Enfortumab-4A06 bispecific antibody (bispecific antibody)
heavy 1: not shown
light 1: DIQMTQSPSSVSASVGDRVTITCRASQGISGWLAWYQQKPGKAPKFLIYAASTLQSGVPSRFSGSGSGTDFTLTISSLQPEDFATYYCQQANSFPPTFGGGTKVEIKRTVAAPSVFIFPPSDEQLKSGTASVVCLLNNFYPREAKVQWKVDNALQSGNSQESVTEQDSKDSTYSLSSTLTLSKADYEKHKVYACEVTHQGLSSPVTKSFNRGEC
heavy 2: EISEVQLVESGGGLVQPGGSLRLSCAASGFNLSYYYIHWVRQAPGKGLEWVASIYSSSSYTSYADSVKGRFTISADTSKNTAYLQMNSLRAEDTAVYYCARAYYGFDYWGQGTLVTVSSASTKGPSVFPLAPSSKSTSGGTAALGCLVKDYFPEPVTVSWNSGALTSGVHTFPAVLQSSGLYSLSSVVTVPSSSLGTQTYICNVNHKPSNTKVDKKVEPKSCDKTHTCPPCPAPELLGGPSVFLFPPKPKDTLMISRTPEVTCVVVDVSHEDPEVKFNWYVDGVEVHNAKTKPREEQYNSTYRVVSVLTVLHQDWLNGKEYKCKVSNKALPAPIEKTISKAKGQPREPQVYTLPPIRELMTSNQVSLSCAVKGFYPSDIAVEWESNGQPENNYKTTPPVLDSDGSFFLVSKLTVDKSRWQQGNVFSCSVMHEALHNHYTQKSLSLSPGK
light 2: DIQMTQSPSSLSASVGDRVTITCRASQSVSSAVAWYQQKPGKAPKLLIYSASSLYSGVPSRFSGSRSGTDFTLTISSLQPEDFATYYCQQSYYYYPITFGQGTKVEIKRTVAAPSVFIFPPSDSQLKSGTASVVCLLNNFYPREAKVQWKVDNALQSGNSQESVTEQDSKDSTYSLSSTLTLSKADYEKHKVYACEVTHQGLSSPVTKSFNRGECGGSDYKDDDDK
notes: It has four different chains; also called Enfortumab (Nectin-4)-4A06 (CDCP1); Enfortumab-4A06 antibody
In the case of B1, the binding result in the experiment with CDCP1 and with Nectin-4 was “binds” in each case.

Source of the values: patent publication US20240084030A1 (University of California, published 2024).
